Molecular target: Human CD137 ECD (human)
Test: single mutant vs template dBBDu183H

Chain of Human CD137 ECD (human) (chain, as listed by the source limits assumed): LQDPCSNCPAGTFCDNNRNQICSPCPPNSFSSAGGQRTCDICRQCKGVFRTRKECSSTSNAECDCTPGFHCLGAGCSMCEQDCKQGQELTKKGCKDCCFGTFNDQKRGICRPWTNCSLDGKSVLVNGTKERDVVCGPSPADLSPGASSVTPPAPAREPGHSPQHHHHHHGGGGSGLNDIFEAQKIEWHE

Row | fold change of affinity [fold] | Binder
1 | 0 | H183/L072 VH Y55V (antibody, name in Kabat numbering, V domains shown) VH: QVQLVESGGGLVQPGRSLRLSCAASGFTFSNAWMHWVRQAPGKGLEWVAQIKDKGNAVAAYYAPSVKGRFTISRDDSKNSIYLQMNSLKTEDTAVYYCHYVHYASASTVLPAFGVDAWGQGTTVTVSS VL: DIVMTQSPLSLPVTPGEPASISCQASQELVHMNRNTYLHWYQQKPGQAPRLLIYKVSNRFPGVPDRFSGSGSGTDFTLKISRVEAEDVGVYYCAQGTSVPFTFGQGTKLEIK
2 | 0 | H183/L072 VH M34N (antibody, name in Kabat numbering, V domains shown) VH: QVQLVESGGGLVQPGRSLRLSCAASGFTFSNAWNHWVRQAPGKGLEWVAQIKDKGNAYAAYYAPSVKGRFTISRDDSKNSIYLQMNSLKTEDTAVYYCHYVHYASASTVLPAFGVDAWGQGTTVTVSS VL: DIVMTQSPLSLPVTPGEPASISCQASQELVHMNRNTYLHWYQQKPGQAPRLLIYKVSNRFPGVPDRFSGSGSGTDFTLKISRVEAEDVGVYYCAQGTSVPFTFGQGTKLEIK
3 | 0 | H183/L072 VH F29G (antibody, name in Kabat numbering, V domains shown) VH: QVQLVESGGGLVQPGRSLRLSCAASGFTGSNAWMHWVRQAPGKGLEWVAQIKDKGNAYAAYYAPSVKGRFTISRDDSKNSIYLQMNSLKTEDTAVYYCHYVHYASASTVLPAFGVDAWGQGTTVTVSS VL: DIVMTQSPLSLPVTPGEPASISCQASQELVHMNRNTYLHWYQQKPGQAPRLLIYKVSNRFPGVPDRFSGSGSGTDFTLKISRVEAEDVGVYYCAQGTSVPFTFGQGTKLEIK
4 | 0 | H183/L072 VH M34Q (antibody, name in Kabat numbering, V domains shown) VH: QVQLVESGGGLVQPGRSLRLSCAASGFTFSNAWQHWVRQAPGKGLEWVAQIKDKGNAYAAYYAPSVKGRFTISRDDSKNSIYLQMNSLKTEDTAVYYCHYVHYASASTVLPAFGVDAWGQGTTVTVSS VL: DIVMTQSPLSLPVTPGEPASISCQASQELVHMNRNTYLHWYQQKPGQAPRLLIYKVSNRFPGVPDRFSGSGSGTDFTLKISRVEAEDVGVYYCAQGTSVPFTFGQGTKLEIK
5 | 0 | H183/L072 VH M34G (antibody, name in Kabat numbering, V domains shown) VH: QVQLVESGGGLVQPGRSLRLSCAASGFTFSNAWGHWVRQAPGKGLEWVAQIKDKGNAYAAYYAPSVKGRFTISRDDSKNSIYLQMNSLKTEDTAVYYCHYVHYASASTVLPAFGVDAWGQGTTVTVSS VL: DIVMTQSPLSLPVTPGEPASISCQASQELVHMNRNTYLHWYQQKPGQAPRLLIYKVSNRFPGVPDRFSGSGSGTDFTLKISRVEAEDVGVYYCAQGTSVPFTFGQGTKLEIK
6 | 0 | H183/L072 VH T28N (antibody, name in Kabat numbering, V domains shown) VH: QVQLVESGGGLVQPGRSLRLSCAASGFNFSNAWMHWVRQAPGKGLEWVAQIKDKGNAYAAYYAPSVKGRFTISRDDSKNSIYLQMNSLKTEDTAVYYCHYVHYASASTVLPAFGVDAWGQGTTVTVSS VL: DIVMTQSPLSLPVTPGEPASISCQASQELVHMNRNTYLHWYQQKPGQAPRLLIYKVSNRFPGVPDRFSGSGSGTDFTLKISRVEAEDVGVYYCAQGTSVPFTFGQGTKLEIK
7 | 0 | H183/L072 VH W33G (antibody, name in Kabat numbering, V domains shown) VH: QVQLVESGGGLVQPGRSLRLSCAASGFTFSNAGMHWVRQAPGKGLEWVAQIKDKGNAYAAYYAPSVKGRFTISRDDSKNSIYLQMNSLKTEDTAVYYCHYVHYASASTVLPAFGVDAWGQGTTVTVSS VL: DIVMTQSPLSLPVTPGEPASISCQASQELVHMNRNTYLHWYQQKPGQAPRLLIYKVSNRFPGVPDRFSGSGSGTDFTLKISRVEAEDVGVYYCAQGTSVPFTFGQGTKLEIK
8 | 0 | H183/L072 VH K52G (antibody, name in Kabat numbering, V domains shown) VH: QVQLVESGGGLVQPGRSLRLSCAASGFTFSNAWMHWVRQAPGKGLEWVAQIGDKGNAYAAYYAPSVKGRFTISRDDSKNSIYLQMNSLKTEDTAVYYCHYVHYASASTVLPAFGVDAWGQGTTVTVSS VL: DIVMTQSPLSLPVTPGEPASISCQASQELVHMNRNTYLHWYQQKPGQAPRLLIYKVSNRFPGVPDRFSGSGSGTDFTLKISRVEAEDVGVYYCAQGTSVPFTFGQGTKLEIK
9 | 0 | H183/L072 VH N53Q (antibody, name in Kabat numbering, V domains shown) VH: QVQLVESGGGLVQPGRSLRLSCAASGFTFSNAWMHWVRQAPGKGLEWVAQIKDKGQAYAAYYAPSVKGRFTISRDDSKNSIYLQMNSLKTEDTAVYYCHYVHYASASTVLPAFGVDAWGQGTTVTVSS VL: DIVMTQSPLSLPVTPGEPASISCQASQELVHMNRNTYLHWYQQKPGQAPRLLIYKVSNRFPGVPDRFSGSGSGTDFTLKISRVEAEDVGVYYCAQGTSVPFTFGQGTKLEIK
10 | 0 | H183/L072 VH N53G (antibody, name in Kabat numbering, V domains shown) VH: QVQLVESGGGLVQPGRSLRLSCAASGFTFSNAWMHWVRQAPGKGLEWVAQIKDKGGAYAAYYAPSVKGRFTISRDDSKNSIYLQMNSLKTEDTAVYYCHYVHYASASTVLPAFGVDAWGQGTTVTVSS VL: DIVMTQSPLSLPVTPGEPASISCQASQELVHMNRNTYLHWYQQKPGQAPRLLIYKVSNRFPGVPDRFSGSGSGTDFTLKISRVEAEDVGVYYCAQGTSVPFTFGQGTKLEIK
11 | 0 | H183/L072 VH D52aQ (antibody, name in Kabat numbering, V domains shown) VH: QVQLVESGGGLVQPGRSLRLSCAASGFTFSNAWMHWVRQAPGKGLEWVAQIKQKGNAYAAYYAPSVKGRFTISRDDSKNSIYLQMNSLKTEDTAVYYCHYVHYASASTVLPAFGVDAWGQGTTVTVSS VL: DIVMTQSPLSLPVTPGEPASISCQASQELVHMNRNTYLHWYQQKPGQAPRLLIYKVSNRFPGVPDRFSGSGSGTDFTLKISRVEAEDVGVYYCAQGTSVPFTFGQGTKLEIK
12 | 0 | H183/L072 VH H35G (antibody, name in Kabat numbering, V domains shown) VH: QVQLVESGGGLVQPGRSLRLSCAASGFTFSNAWMGWVRQAPGKGLEWVAQIKDKGNAYAAYYAPSVKGRFTISRDDSKNSIYLQMNSLKTEDTAVYYCHYVHYASASTVLPAFGVDAWGQGTTVTVSS VL: DIVMTQSPLSLPVTPGEPASISCQASQELVHMNRNTYLHWYQQKPGQAPRLLIYKVSNRFPGVPDRFSGSGSGTDFTLKISRVEAEDVGVYYCAQGTSVPFTFGQGTKLEIK
13 | 0 | H183/L072 VH D52aN (antibody, name in Kabat numbering, V domains shown) VH: QVQLVESGGGLVQPGRSLRLSCAASGFTFSNAWMHWVRQAPGKGLEWVAQIKNKGNAYAAYYAPSVKGRFTISRDDSKNSIYLQMNSLKTEDTAVYYCHYVHYASASTVLPAFGVDAWGQGTTVTVSS VL: DIVMTQSPLSLPVTPGEPASISCQASQELVHMNRNTYLHWYQQKPGQAPRLLIYKVSNRFPGVPDRFSGSGSGTDFTLKISRVEAEDVGVYYCAQGTSVPFTFGQGTKLEIK
14 | 0 | H183/L072 VH Q50G (antibody, name in Kabat numbering, V domains shown) VH: QVQLVESGGGLVQPGRSLRLSCAASGFTFSNAWMHWVRQAPGKGLEWVAGIKDKGNAYAAYYAPSVKGRFTISRDDSKNSIYLQMNSLKTEDTAVYYCHYVHYASASTVLPAFGVDAWGQGTTVTVSS VL: DIVMTQSPLSLPVTPGEPASISCQASQELVHMNRNTYLHWYQQKPGQAPRLLIYKVSNRFPGVPDRFSGSGSGTDFTLKISRVEAEDVGVYYCAQGTSVPFTFGQGTKLEIK
15 | 0 | H183/L072 VH F29N (antibody, name in Kabat numbering, V domains shown) VH: QVQLVESGGGLVQPGRSLRLSCAASGFTNSNAWMHWVRQAPGKGLEWVAQIKDKGNAYAAYYAPSVKGRFTISRDDSKNSIYLQMNSLKTEDTAVYYCHYVHYASASTVLPAFGVDAWGQGTTVTVSS VL: DIVMTQSPLSLPVTPGEPASISCQASQELVHMNRNTYLHWYQQKPGQAPRLLIYKVSNRFPGVPDRFSGSGSGTDFTLKISRVEAEDVGVYYCAQGTSVPFTFGQGTKLEIK
16 | 0 | H183/L072 VH H35Q (antibody, name in Kabat numbering, V domains shown) VH: QVQLVESGGGLVQPGRSLRLSCAASGFTFSNAWMQWVRQAPGKGLEWVAQIKDKGNAYAAYYAPSVKGRFTISRDDSKNSIYLQMNSLKTEDTAVYYCHYVHYASASTVLPAFGVDAWGQGTTVTVSS VL: DIVMTQSPLSLPVTPGEPASISCQASQELVHMNRNTYLHWYQQKPGQAPRLLIYKVSNRFPGVPDRFSGSGSGTDFTLKISRVEAEDVGVYYCAQGTSVPFTFGQGTKLEIK
17 | 0 | H183/L072 VH W33Q (antibody, name in Kabat numbering, V domains shown) VH: QVQLVESGGGLVQPGRSLRLSCAASGFTFSNAQMHWVRQAPGKGLEWVAQIKDKGNAYAAYYAPSVKGRFTISRDDSKNSIYLQMNSLKTEDTAVYYCHYVHYASASTVLPAFGVDAWGQGTTVTVSS VL: DIVMTQSPLSLPVTPGEPASISCQASQELVHMNRNTYLHWYQQKPGQAPRLLIYKVSNRFPGVPDRFSGSGSGTDFTLKISRVEAEDVGVYYCAQGTSVPFTFGQGTKLEIK
18 | 0 | H183/L072 VH D52aG (antibody, name in Kabat numbering, V domains shown) VH: QVQLVESGGGLVQPGRSLRLSCAASGFTFSNAWMHWVRQAPGKGLEWVAQIKGKGNAYAAYYAPSVKGRFTISRDDSKNSIYLQMNSLKTEDTAVYYCHYVHYASASTVLPAFGVDAWGQGTTVTVSS VL: DIVMTQSPLSLPVTPGEPASISCQASQELVHMNRNTYLHWYQQKPGQAPRLLIYKVSNRFPGVPDRFSGSGSGTDFTLKISRVEAEDVGVYYCAQGTSVPFTFGQGTKLEIK
19 | 0 | H183/L072 VH W33N (antibody, name in Kabat numbering, V domains shown) VH: QVQLVESGGGLVQPGRSLRLSCAASGFTFSNANMHWVRQAPGKGLEWVAQIKDKGNAYAAYYAPSVKGRFTISRDDSKNSIYLQMNSLKTEDTAVYYCHYVHYASASTVLPAFGVDAWGQGTTVTVSS VL: DIVMTQSPLSLPVTPGEPASISCQASQELVHMNRNTYLHWYQQKPGQAPRLLIYKVSNRFPGVPDRFSGSGSGTDFTLKISRVEAEDVGVYYCAQGTSVPFTFGQGTKLEIK
20 | 0 | H183/L072 VH F29Q (antibody, name in Kabat numbering, V domains shown) VH: QVQLVESGGGLVQPGRSLRLSCAASGFTQSNAWMHWVRQAPGKGLEWVAQIKDKGNAYAAYYAPSVKGRFTISRDDSKNSIYLQMNSLKTEDTAVYYCHYVHYASASTVLPAFGVDAWGQGTTVTVSS VL: DIVMTQSPLSLPVTPGEPASISCQASQELVHMNRNTYLHWYQQKPGQAPRLLIYKVSNRFPGVPDRFSGSGSGTDFTLKISRVEAEDVGVYYCAQGTSVPFTFGQGTKLEIK
21 | 0 | H183/L072 VH I51Q (antibody, name in Kabat numbering, V domains shown) VH: QVQLVESGGGLVQPGRSLRLSCAASGFTFSNAWMHWVRQAPGKGLEWVAQQKDKGNAYAAYYAPSVKGRFTISRDDSKNSIYLQMNSLKTEDTAVYYCHYVHYASASTVLPAFGVDAWGQGTTVTVSS VL: DIVMTQSPLSLPVTPGEPASISCQASQELVHMNRNTYLHWYQQKPGQAPRLLIYKVSNRFPGVPDRFSGSGSGTDFTLKISRVEAEDVGVYYCAQGTSVPFTFGQGTKLEIK

Source: patent US20210388087A1
